Laboratory results reported in PMC2361611.
Where two headings read alike, the source gives them in different places.

What was measured:
polyubiquitin [1] = molecular target: polyubiquitin (UniProt P0CG48)
polyubiquitin [2] = molecular target: polyubiquitin (UniProt P0CG48); test: ELISA; 0.50 ug polyubiquitin dried per well (Nunc MaxiSorp), blocked with 1% BSA; angiocidin or mutants at various concentrations in TBST pH 7.4, 1.5 h, room temperature; detected with biotinylated rabbit antiangiocidin IgG and streptavidin-HRP; fitted to a rectangular hyperbola
polyubiquitin [3] = molecular target: polyubiquitin (UniProt P0CG48); test: as above; remark: listed apart in the source

Kd (polyubiquitin [2]) | Kd (polyubiquitin [3]) | Substance | endothelial cell apoptotic activity: viability of HUVE cells plated overnight on wells coated with 1 ug protein, Alamar blue assay (fold lower than angiocidin) (polyubiquitin [1])
15 nM | 1.52 nM | angiocidin mutant M-2 (L216ALAL220 substituted with alanines) (natural protein) | 2
0.041 nM |  | angiocidin (his-tagged recombinant, full length) (natural protein) | 
